1 substance from publication PMC11904967 can be followed below.

One may read the stoichiometry N as a count of units in the complex or per binding partner.

This assay deals with pyruvate kinase PKM (PKM2), endogenous in PANC‐1 cells (human (endogenous in PANC-1)) (UniProt P14618). Put plainly: western blotting of monomers and dimers; AsPC-1 and PANC-1 cells transduced with HACD2 WT, HACD2 MUT or vector, or with HACD2 knockdown; how dimers were kept on the gel is not told.

pyruvate kinase PKM (PKM2), endogenous in PANC‐1 cells, P14618 1-531 (natural protein; other documents disagree on this pair), sequence (P14618 whole entry): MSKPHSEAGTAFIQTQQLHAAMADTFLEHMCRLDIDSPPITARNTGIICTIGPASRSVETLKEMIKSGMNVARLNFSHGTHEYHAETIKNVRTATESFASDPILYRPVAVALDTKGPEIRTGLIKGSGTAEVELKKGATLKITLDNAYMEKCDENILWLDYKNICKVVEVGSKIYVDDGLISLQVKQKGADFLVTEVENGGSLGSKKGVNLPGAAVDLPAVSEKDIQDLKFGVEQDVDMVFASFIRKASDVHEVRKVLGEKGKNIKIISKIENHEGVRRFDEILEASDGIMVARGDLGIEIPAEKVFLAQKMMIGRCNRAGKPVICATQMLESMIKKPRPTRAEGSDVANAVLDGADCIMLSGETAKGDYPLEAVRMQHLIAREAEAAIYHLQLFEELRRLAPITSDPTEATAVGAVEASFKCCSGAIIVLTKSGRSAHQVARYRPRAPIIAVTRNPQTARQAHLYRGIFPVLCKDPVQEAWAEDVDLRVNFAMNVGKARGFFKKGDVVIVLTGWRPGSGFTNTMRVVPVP

“pyruvate kinase PKM (PKM2), endogenous in PANC‐1 cells, P14618 1-531 (natural protein; other documents disagree on this pair)” registered a stoichiometry N of 2.
